# Data published in patent US20240324599A1, “PESTICIDAL ENZYMES FOR USE ON NEMATODES, INSECTS, AND MOLLUSKS” (priority 2023, published 2024).
# B1: Keratinase: protease resuspended in water at 0.25 g/mL (protein, listed as Bacillus licheniformis)
# chain: MMRKKSFWLGMLTAFMLVFTMAFSDSASAAQPAKNVEKDYIVGFKSGVKTASVKKDIIKESGGKVDKQFRIINAAKAKLDKEALKEVKNDPDVAYVEEDHVAHALAQTVPYGIPLIKADKVQAQGFKGANVKVAVLDTGIQASHPDLNVVGGASFVAGEAYNTDGNGHGTHVAGTVAALDNTTGVLGVAPSVSLYAVKVLNSSGSGSYSGIVSGIEWATTNGMDVINMSLGGASGSTAMKQAVDNAYARGVVVVAAAGNSGSSGNTNTIGYPAKYDSVIAVGAVDSNSNRASFSSVGAELEVMAPGAGVYSTYPTNTYATLNGTSMVSPHVAGAAALILSKHPNLSASQVRNRLSSTATYLGSSFYYGKGLINVEAAAQ
# modifications: Protease _ keratinase
# notes: protease resuspended in water at 0.25 g/mL
# Assays:
# Format in all cases: in vivo
# [1] = system: Diamondback moth (Plutella xylostella); experiment: Diet-surface overlay (DSO) bioassay; details: Table 41, individuals of n = 16 after 7 days
# Protocol: (§1) Diet-surface overlay bioassays are conducted with artificial diet mixes without antibiotics in 1.5 cm^2 cell bioassay trays(s). Artificial diets are commercially available from Southland Products Inc. Diets were prepared by dispersing 0.5 mL of molten diet to each 1.5 cm^2 cell. After solidification, 0.1 mL enzyme treatments were dispersed on top of diet in each cell and the tray was gently rocked in an orbital shaker to spread the liquid uniformly over the diet surface. Trays were placed under clean airflow until the surface of each cell was uniformly dried. One or two 16-cell sections were used per treatment (the number in larvae treated was 16 or 32).
# (§2) One healthy first instar larva was placed into each treatment cell, each 16-cell section was covered with a re-sealable lid and incubated at 27° C. and light-dark period of 16:8 hrs. After 7 days, and according to the species, the number of individuals in the following developmental categories was recorded.
# (§3) Diamondback moth (Plutella xylostella): Dead Larva (lack of movement), Larva Stage I (≤50% relative size), Larva Stage II (100% relative size, full size), Early Pupa (light green color), Late Pupa (light-dark brown color), and Adult.
# (§4) Negative/untreated controls were treated with filtered water and positive controls were treated with lethal doses of Bacillus thuringiensis subsp. Kurstaki (Btk) spores at 1000 ppm.
# [2] = system: Fall armyworm (Spodoptera frugiperda); experiment: Diet-surface overlay (DSO) bioassay
# Protocol: as §1, §2, §4
# [3] = system: Btk resistant Diamondback moth; experiment: Diet-surface overlay (DSO) bioassay
# Protocol: as §1, §2, §3, §4
# However, both neutral proteases reduced the number of individuals reaching adult stage.
# [4] = system: Black gloss snails (Zonitoides nitidus); experiment: Antifeedant and molluscicide bioassay (artificial diet): consumption, survival, weight gain; details: Table 63; n = 12, 7 days; control diet 2.50
# Protocol: Two-week old garden snails (Cornu aspersum) and full-size black gloss snails (Zonitoides nitidus) were maintained in a semi-darkened tank at 68-70° F. at high humidity, provided with a wet sponge in a petri dish. Snails were transferred to fresh tank every 2-3 days, and they were feed ad libitum with cucumber slices supplemented with calcium carbonate tablets. Individuals were reared in the laboratory for at least a week to fully acclimate to laboratory conditions prior to testing. The individuals ranged between 3 weeks to 2 months old at the time of bioassay.
# Filter-sterilized recombinant enzymes including proteases and lipases were prepared as indicated in Example 25. Corresponding controls (e.g., buffer, fermentation of non-recombinant strain, water) were be prepared accordingly. […]
# 12 snails were randomly assigned to each treatment, labeled with permanent marker on the top of the shell for identification, and their weight (mg) was recorded before treatment. […] At the time of treatment replacement, treatment consumption, weight, and mortality were recorded.
# Alkaline Protease and Keratinase and Lipases from Pseudomonas fluorescens (Pf,), were prepared as described above and their antifeedant and molluscicidal effects were tested. […] The units (U) of enzyme activity was determined as the amount of enzyme required to breakdown 1 μM of substrate per minute. […]
# [5] = Table 43, n = 32, Keratinase 260 U/mL diet, water 0
# [6] = Table 42, Btk resistant, n = 32, doses as E69, water 0
molecule,measurement,setting,value
B1,Dead Larva,"[1]; U/mL diet: SEQ 127 0.206, Acid 2.5, Alkaline 190, Neutral 20, Keratinase 26, Btk spores 1000 ppm, water 0",1
same,Larva Stage I,"[1]; doses as E63, water 0",0
same,Larva Stage II,"[1]; doses as E63, water 0",0
same,Early Pupa,"[1]; doses as E63, water 3",11
same,Late Pupa,"[1]; doses as E63, water 3",4
same,Adult,"[1]; doses as E63, water 10",0
same,Dead Larva,"[2]; Table 43, individuals of n = 32 after 7 days, Keratinase 260 U/mL diet, water 2",32
same,Larva Stage I,[2]; [5],0
same,Larva Stage II,[2]; [5],0
same,Larva Stage III,[2]; [5],0
same,Larva Stage IV,"[2]; Table 43, n = 32, Keratinase 260 U/mL diet, water 30",0
same,"effect on Fall armyworm larvae, in words","[2]; text to Tables 43, 46, 48, 50",lethal
same,Dead Larva,"[3]; Table 42, Btk resistant strain, individuals of n = 32 after 7 days, U/mL diet: SEQ 127 2, Neutral 200, Keratinase 260, water 1",19
same,Larva Stage I,[3]; [6],11
same,Larva Stage II,[3]; [6],2
same,Early Pupa,"[3]; Table 42, Btk resistant, n = 32, doses as E69, water 1",0
same,Adult,"[3]; Table 42, Btk resistant, n = 32, doses as E69, water 8",0
same,Late Pupa,"[3]; Table 42, Btk resistant, n = 32, doses as E69, water 22",0
same,mortality,"[3]; text to Table 42, 10× higher protease activity rate",more than 50%
same,"effect on Btk resistant Diamondback moth larvae, in words","[3]; text to Tables 42, 45, 47",strong stunting of survival larvae
same,Diet consumption,[4],0.70 g
